Patent US11858993B2, “Multi-specific antibodies with affinity for human A33 antigen and DOTA metal complex and uses thereof” (Memorial Sloan Kettering Cancer Center, priority 2015, dated 2024)
Read-outs that look alike come from different tables or passages of the source.

Tests used:
[1] = Stability by SE-HPLC and Biacore after freeze and thaw cycles; type: physicochemical; conditions: after multiple freeze and thaw cycles
SW1222 tumor [2] = test: ^177Lu-DOTA-Bn dose titration, tumor uptake and saturation during PRIT; type: in vivo, mice
Procedure: FIGS. 4A-4D show exemplary tumor uptake of ^177Lu-DOTA-Bn at 24 hours post injection as a function of radioactivity in the treatment of mice bearing a human colon cancer xenograft (SW1222); (FIG. 4A) uptake of amounts of ^177Lu-DOTA-Bn in various tissues. (FIG. 4B) Uptake of amounts of ^177Lu-DOTA-Bn in SW1222 tumors; (FIG. 4C) activity of ^177Lu-DOTA-Bn in SW1222 tumors and kidneys 24 hours post injection per amount of injected ^177Lu-DOTA-Bn; (FIG. 4D) pmoles of ^177Lu-DOTA-Bn binding in the tumor 24 hours post injection per amount of injected ^177Lu-DOTA-Bn. Saturation was achieved after approximately 40 MBq of injected activity.
As described herein, the present inventors provide an improved multi-step PRIT method in immunocompromised mice bearing s.c. A33-positive human colorectal tumors (SW1222) using a bispecific antibody termed huA33-C825. Such methodology includes i.v. injection of various doses of huA33-C825 and a dextran-based CA, followed with injection of ^177Lu-DOTA-Bn theranostic (i.e., diagnostic and therapeutic) hapten for simultaneous scintigraphic imaging and radioimmunotherapy. The present invention specifically describes biodistribution studies that provide optimum huA33-C825 and CA doses, followed with a series of additional biodistribution studies to determine the tumor uptake as a function of ^177Lu-DOTA-Bn doses (˜2.0-111.0 MBq) to serve as a practical and dosimetric guide for PRIT studies. Also, as described herein, tumors and kidneys were excised at 24 hours post injection of ^177Lu-DOTA-Bn at three different dose levels (11.1, 55.0, and 111.0 MBq) to examine ex vivo the ^177Lu-activity microdistribution via autoradiography, as well as correlate the ^177Lu-activity with the xenograft and tissue morphology via hematoxylin and eosin staining. Further, the estimated absolute SW1222 tumor uptake of huA33-C825 24 h p.i. of 0.25 mg/mouse based on radioactive tracer studies with ^131I-huA33-C825 was ˜90 pmol/g of tumor.

[3] = test system: A33-positive SW1222 xenografts; conditions: for Complete Response / Cures at 40 d post-treatment: Single-cycle; for tumor volume: day 23 post tumor-inoculation, average±SEM
Excerpt: All animal experiments were approved by the Institutional Animal Care and Use Committee of Memorial Sloan Kettering Cancer Center and institutional guidelines for the proper and humane use of animals in research were followed. Athymic nu/nu female mice (6-8 weeks old; Harlan Sprague Dawley) were allowed to acclimate in the vivarium for at least one week. […] All reagents were given intravenously (i.v.) via the lateral tail vein. […] In addition, huA33-C825 was trace radiolabeled with I-131 to estimate tumor uptake during PRIT. […] (Lindmo, T. et al., 1990, J. Immunol. Meth. 126(2):183-189). For PRIT with non-specific IgG-C825, an equivalent mg dose of a GD2-targeted bispecific antibody (hu3F8-C825) was used in place of huA33-C825. For ex vivo biodistribution analysis, mice were euthanized by CO2(g) asphyxiation, and tumor and selected organs were harvested, rinsed with water and allowed to air-dry, weighed and radioassayed by gamma scintillation counting (Perkin Elmer Wallac Wizard 3″). Count rates were background and decay corrected, converted to activities using a system calibration factor, normalized to the administered activity, and expressed as percent injected dose per gram (% ID/g). Differences in ^177Lu-activity concentration in tumor and various tissues were analyzed by Student's unpaired t test when appropriate.

BSA-(Y)-DOTA-Bn = test: Biacore T100 surface plasmon resonance, binding to BSA-(Y)-DOTA-Bn
Procedure: Binding affinity was measured by Biacore T100.
Biacore T100 Biosensor, CM5 sensor chip, and related reagents were purchased from GE Healthcare. Recombinant human A33 protein was purchased from Novoprotein. A BSA-(Y)-DOTA-Bn conjugate was prepared as described (Cheal et al., supra). A33 and DOTA antigens were immobilized using the Amino Coupling kit (GE Healthcare). Purified bispecific antibodies and control antibodies were analyzed, and data were fit to a bivalent analyte model using the Biacore T100 evaluation software as described (Cheal et al., supra).

SW1222 tumor [4] = test: PRIT optimization biodistribution (huA33-C825 dose, clearing agent dose), 24 h p.i. of ^177Lu-DOTA-Bn; conditions: for tumor-to-organ ratio, kidney: 24 h p.i.
Procedure: Next, additional biodistribution experiments were performed to optimize the CA dose during PRIT with 0.25 mg (1.19 nmol) as the huA33-C825 dose. Groups of tumor-bearing mice (n=3 to 4 per group) with were injected with huA33-C825, followed 24 h later with either: saline (i.e. vehicle), 2.4% (w/w, with respect to 0.25 mg huA33-C825 dose), 5% (w/w), 10% (w/w), or 25% (w/w) CA doses (0-62.5 μg/mouse). After an additional 4 h, mice were injected with 5.6 MBq of ^177Lu-DOTA-Bn, and sacrificed 24 h later for biodistribution analysis.
Next, ^177Lu-DOTA-Bn dose titration studies were performed using the optimized PRIT doses for huA33-C825 and CA. For ^177Lu-DOTA-Bn dose titration studies, the ^177Lu-activity biodistribution data for tumor and critical select tissues (blood, liver, spleen, and kidneys) was compared between ^177Lu-DOTA-Bn dose groups as both % ID/g and absolute uptake (kBq/g; see FIGS. 4A, 4B). Finally, a single-time point biodistribution experiment at 24 h p.i. of ^131I-trace labeled huA33-C825 (0.39-0.40 MBq with cold huA33-C825 added to 1.19 nmol) was performed in SW1222-tumor bearing mice to estimate the absolute antibody uptake of huA33-C825 in tumor (as pmol/g) during PRIT.
All animal experiments were approved by the Institutional Animal Care and Use Committee of Memorial Sloan Kettering Cancer Center and institutional guidelines for the proper and humane use of animals in research were followed. Athymic nu/nu female mice (6-8 weeks old; Harlan Sprague Dawley) were allowed to acclimate in the vivarium for at least one week. […] All reagents were given intravenously (i.v.) via the lateral tail vein. […] In addition, huA33-C825 was trace radiolabeled with I-131 to estimate tumor uptake during PRIT.

[5] = single-cycle huA33-C825 PRIT+either 11.1 MBq or 33.3 MBq ^177Lu-DOTA-Bn
[6] = Biacore T100, bivalent analyte model

huA33-C825: bispecific antibody: humanized A33 IgG1 with murine C825 anti-DOTA-Bn scFv linked to the light chain C-terminus
stability by SE-HPLC and Biacore [1]: remained stable
estimated maximum occupancy (fraction) (SW1222 tumor [2]; 11 pmol ^177Lu-DOTA-Bn/180 pmol): 0.061
peak tumor uptake (SW1222 tumor [2]; PRIT+55.5 ^177Lu-DOTA-Bn per cycle): 3 % ID/g
injected activity of ^177Lu-DOTA-Bn after which saturation of tumor binding was achieved (SW1222 tumor [2]; SW1222 tumors, 24 hours post injection): approximately 40 MBq
^177Lu-DOTA-Bn bound in tumor used for maximum occupancy (SW1222 tumor [2]; mouse, in vivo): 11 pmol
maximum ^177Lu-DOTA-Bn binding capacity (SW1222 tumor [2]; two ^177Lu-DOTA-Bn per huA33-C825 molecule): 180 pmol/g tumor
Complete Response ([3]; + 11.1 MBq): 0/8
Cures at 40 d post-treatment ([3]; + 11.1 MBq): 0/8
Complete Response ([3]; + 33.3 MBq): 0/8
Cures at 40 d post-treatment ([3]; + 33.3 MBq): 0/8
tumor volume ([3]; 11.1 MBq ^177Lu-DOTA-Bn): 694±138 mm^3
tumor volume ([3]; 33.3 MBq ^177Lu-DOTA-Bn): 495±76 mm^3
effective dose range (tumor) ([3]; mouse, in vivo): 1800-2200 cGy
complete response (CR) [3, 5]: no CR
slight growth delay of the tumors, up to (days following treatment) [3, 5]: ~15 days
koff (BSA-(Y)-DOTA-Bn; [6]): 0.00022 s⁻¹
kon (BSA-(Y)-DOTA-Bn; [6]): 19000 M⁻¹ s⁻¹
Kd (BSA-(Y)-DOTA-Bn; FIG. 2B): 11.6 nM
tumor-to-organ ratio, kidney (SW1222 tumor [4]; 65 μg CA dose level (25% (w/w))): 18.4±13.4
reduction in ^177Lu-DOTA-Bn tumor uptake compared with PRIT with saline (SW1222 tumor [4]; mouse, in vivo): ~50%
tumor-to-organ ratio, blood (SW1222 tumor [4]; mouse, in vivo): 2.2±0.4
tumor-to-organ ratio, muscle (SW1222 tumor [4]; mouse, in vivo): 23.2±3.8
tumor-to-organ ratio, kidney (SW1222 tumor [4]; saline (no CA)): 4.9±0.6
